Results from the supplement of paper PMC10724198.
± gives the standard deviation of the averaged measurements.

What follows are sequences tested on Saccharomyces cerevisiae (assay: protein stability index of tFT-peptide fusion (C-terminal peptide) (PSI (0-1 scale)); higher = more stable (slower turnover)). Details: genetic background: wild type; temperature: 30 C.
Protocol: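 Multiplexed protein stability (MPS) profiling in S. cerevisiae. Random 12-aa peptides (tFT-X12 library) are fused to the C-terminus of a sfGFP-mCherry tandem fluorescent timer, after mCherry and a GGGS linker. Cells are FACS-sorted into 8 mCherry/sfGFP bins and deep-sequenced. The protein stability index (PSI) is the read-weighted bin average, scaled from 0 (unstable) to 1 (stable). Only peptides with >10 reads are reported; cells were grown at 30 °C in SC-His with glucose.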
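Further: PSI is a weighted mean of sequencing reads over stability bins, variants kept only with over 10 reads, mCherry proximal and sfGFP distal, peptide attached via GGGS linker.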

Sequence | protein stability index
GVECGSVCGGGG | 0.651 ± 0.013
GVEFKVVSFVVD | 0.646 ± 0.094
GVEVSVFFFHFL | 0.576 ± 0.097
GVFCWVGLSAFL | 0.5866 ± 0.004
GVGGGEECHGVG | 0.556 ± 0.018
GVGGGGACRPVG | 0.709 ± 0.15
GVGGGMGMGERW | 0.788 ± 0.18
GVGGGMWCGFGV | 0.701 ± 0.074
GVGLKMLSVGDI | 0.6119 ± 0.002
GVGLSGVGGLGR | 0.6439 ± 0.004
GVGSVADWGGVG | 0.599 ± 0.018
GVGVHAASGGEN | 0.723 ± 0.009
GVGVLGGGYMCL | 0.647 ± 0.069
GVGWFGRGTVGW | 0.676 ± 0.035
GVGYCCVSGGLG | 0.722 ± 0.011
GVIGPFSHDGCA | 0.662 ± 0.021
GVILPVVKARLA | 0.472 ± 0.042
GVLGLDLSVVGG | 0.716 ± 0.035
GVLGSIQLFLGI | 0.699 ± 0.0091
GVLPWQYSSFLS | 0.694 ± 0.058
GVLRGNRITECF | 0.716 ± 0.049
GVLVAFLWGESV | 0.593 ± 0.018
GVRDGGTRGSEG | 0.7012 ± 0.0055
GVRGGWVVNRGV | 0.732 ± 0.026
GVRLSPTACSSI | 0.678 ± 0.071
GVRRAAFAKYGG | 0.655 ± 0.0071

Sequence | protein stability index
GVRRSQSCPVRS | 0.7065 ± 0.0051
GVRYFKWGCTHG | 0.684 ± 0.029
GVSAPGDAGAVP | 0.654 ± 0.015
GVSCGWVAHARW | 0.694 ± 0.061
GVSSGVSFVLGH | 0.702 ± 0.0083
GVSVGGSSGGSG | 0.6868 ± 0.0048
GVSVSSSFLNGC | 0.669 ± 0.019
GVTGGWVVNRGV | 0.7054 ± 0.007
GVTGRGVSRVYG | 0.671 ± 0.013
GVTLKSPTGRVF | 0.666 ± 0.097
GVVGGVGGFFGC | 0.754 ± 0.0013
GVVGLEVLGRWG | 0.687 ± 0.047
GVVMMGERGGER | 0.685 ± 0.049
GVWREVGNIEEV | 0.701 ± 0.0099
GVWWRRVVFGRR | 0.696 ± 0.075
GWCTLASGLFTT | 0.673 ± 0.1
GWGGVWGRVWWR | 0.563 ± 0.05
GWGKWGVGIGRG | 0.694 ± 0.032
GWIAEFGLAGGP | 0.661 ± 0.0089
GWLGPGCVGRMQ | 0.733 ± 0.068
GWPLWGAVRGFW | 0.71 ± 0.035
GWPVGSLKTPCR | 0.726 ± 0.046
GWRFGKVCGLGG | 0.726 ± 0.07
GWSTKSTYHKPT | 0.732 ± 0.025
GYFSTFIKSSML | 0.715 ± 0.029
GYKLLIEGNWEV | 0.756 ± 0.025

Sequence | protein stability index
GYRRTGGLHGVV | 0.716 ± 0.034
GYRSLADSIDLL | 0.7244 ± 0.0066
GYRSSWRALRVG | 0.564 ± 0.076
GYTDPYPAAAPS | 0.639 ± 0.056
GYVHPSWLWANT | 0.732 ± 0.033
GYVVVGGGGWLG | 0.6754 ± 0.0025
GYYPVALDYKLR | 0.708 ± 0.05
HCFASLITSIVH | 0.535 ± 0.025
HCSVSGLQLFMD | 0.699 ± 0.019
HCYKRGSCTSLI | 0.631 ± 0.087
HDPRVGDNAHFV | 0.641 ± 0.099
HFFSFLACFVDL | 0.632 ± 0.054
HFLPFSLLLFPP | 0.755 ± 0.14
HFPLRIYSPNGP | 0.697 ± 0.095
HFPLSLSPPPPP | 0.721 ± 0.032
HFQASRLLCEGD | 0.638 ± 0.026
HFVAALVLLTLD | 0.72 ± 0.17
HFVAPLSPRGSL | 0.633 ± 0.038
HGAPLPTSAPKH | 0.7271 ± 0.0031
HGTAQGVRRQGV | 0.711 ± 0.16
HGWACSRSPCAV | 0.756 ± 0.048
HHAHRLPTLATS | 0.693 ± 0.074
HHAKWAHGTPAQ | 0.681 ± 0.022
HHSLLLPPPPPP | 0.673 ± 0.019
HILDDHVRISNA | 0.685 ± 0.0096
HIPHSKPRTSLP | 0.734 ± 0.048

Sequence | protein stability index
HKDVRGRSLSRM | 0.7183 ± 0.0024
HKENTKEKKKRE | 0.693 ± 0.043
HLFPSPPPSTLP | 0.495 ± 0.045
HLFVPGAFFFFS | 0.718 ± 0.073
HLGIKGFHIFGY | 0.69 ± 0.0071
HLIPSPPTPPRP | 0.664 ± 0.0072
HLKPTPPLPPNT | 0.67 ± 0.017
HLLPRPIRPSTP | 0.664 ± 0.074
HLLSPPLPPSPA | 0.728 ± 0.039
HLPPLPRPPSLT | 0.7049 ± 0.0069
HLPSLLRPPFLL | 0.7038 ± 0.0018
HLPSPSLPSPYF | 0.7648 ± 0.0017
HLPSSRHNPLQN | 0.695 ± 0.037
HLPWTGTPHATV | 0.737 ± 0.029
HLRSALSVHPTL | 0.707 ± 0.051
HLSPPPLMPPCC | 0.759 ± 0.067
HNDYKGSQIDNG | 0.573 ± 0.046
HNIQHKIHTKSR | 0.761 ± 0.039
HNRSFLIPFFPF | 0.671 ± 0.085
HPKASNSLRFSS | 0.649 ± 0.0072
HPLPPTGPPSPS | 0.77 ± 0.041
HPPLAPQPPPPP | 0.711 ± 0.033
HPPLPRPPPPPP | 0.645 ± 0.057
HPPPLGSSASNS | 0.703 ± 0.039
HPPPPSPPSPLP | 0.724 ± 0.036
HPPPTPPSPPPP | 0.667 ± 0.088

Sequence | protein stability index
HPPPTSQPPPGP | 0.726 ± 0.05
HPPRPPLPRPRL | 0.778 ± 0.19
HPPSLPSAPSLP | 0.694 ± 0.029
HPPYRHHPAPLR | 0.673 ± 0.058
HPQPIPVGGLSF | 0.6962 ± 0.0049
HPSGLFSFVCLS | 0.567 ± 0.0057
HPSREPLLLCYH | 0.618 ± 0.067
HPTDVAISPRPS | 0.678 ± 0.023
HPTSHRPLPAAF | 0.724 ± 0.0075
HPTSNQATGRAN | 0.692 ± 0.077
HREQSTILDLKE | 0.715 ± 0.036
HRFFDGVRFPGH | 0.692 ± 0.038
HRFPPDLYQHGP | 0.645 ± 0.011
HRFPPPRPPPFS | 0.729 ± 0.047
HRLTFLDTPSGH | 0.781 ± 0.076
HRNAFLLPPFPL | 0.695 ± 0.014
HRQERLETKTYF | 0.623 ± 0.13
HSFASTWYSSPG | 0.685 ± 0.0076
HSGPPSPFPLNV | 0.718 ± 0.034
HSHTHRHSHGTR | 0.7 ± 0.083
HSPPPSLGPVPA | 0.6636 ± 0.0049
HSRAPNNWHRGI | 0.708 ± 0.043
HSRPRRQPPHSP | 0.705 ± 0.018
HSTENGGCTREY | 0.646 ± 0.039
HSTPDSAAQEPG | 0.673 ± 0.065
HTLQDERNRRRD | 0.696 ± 0.072

Sequence | protein stability index
HTPTFPTSPPPP | 0.68 ± 0.016
HTWAFYSETVCL | 0.694 ± 0.0092
HVHSLAFPPPAT | 0.695 ± 0.068
HVKVGCGNGIVR | 0.644 ± 0.014
HVLRCRASLLFL | 0.6305 ± 0.0031
HVPFPPTVLNSP | 0.667 ± 0.088
HVTHRAVNVPLE | 0.674 ± 0.029
HWCQKNKFKAIS | 0.669 ± 0.033
HWSVATNMLEQH | 0.74 ± 0.054
HYSLSHLRIVLD | 0.645 ± 0.011
IAFLSRCWSFYL | 0.49 ± 0.014
IAFSINAFCWRG | 0.552 ± 0.055
IAMVTLPRLNKS | 0.7179 ± 0.0071
IARKCLTGGGVS | 0.696 ± 0.065
IAYGCCYKELII | 0.63 ± 0.046
ICGLLFNLCKHD | 0.622 ± 0.045
ICITIRQTRENK | 0.668 ± 0.027
ICLMRETAGRED | 0.757 ± 0.2
IDCCAGDSMAGI | 0.703 ± 0.072
IDKVTNTGSRKV | 0.582 ± 0.05
IDSNLCFVKSYT | 0.618 ± 0.064
IEGKDSQEREGR | 0.706 ± 0.075
IERRCGRCMCFM | 0.783 ± 0.1
IESFFLFSFSFP | 0.762 ± 0.31
IFKSGLPLRVGL | 0.657 ± 0.028
